The results in this text go back to patent US20220363770A1 (Amgen, published 2022).

Where a chain is given by its changes, count along the chain named. Numbers in names are those of the source.

Test [1] addresses T1, human PAC1 receptor on SH-SY5Y (CRL-2266) cells (human, UniProt P41586 24-468).
T1 sequence: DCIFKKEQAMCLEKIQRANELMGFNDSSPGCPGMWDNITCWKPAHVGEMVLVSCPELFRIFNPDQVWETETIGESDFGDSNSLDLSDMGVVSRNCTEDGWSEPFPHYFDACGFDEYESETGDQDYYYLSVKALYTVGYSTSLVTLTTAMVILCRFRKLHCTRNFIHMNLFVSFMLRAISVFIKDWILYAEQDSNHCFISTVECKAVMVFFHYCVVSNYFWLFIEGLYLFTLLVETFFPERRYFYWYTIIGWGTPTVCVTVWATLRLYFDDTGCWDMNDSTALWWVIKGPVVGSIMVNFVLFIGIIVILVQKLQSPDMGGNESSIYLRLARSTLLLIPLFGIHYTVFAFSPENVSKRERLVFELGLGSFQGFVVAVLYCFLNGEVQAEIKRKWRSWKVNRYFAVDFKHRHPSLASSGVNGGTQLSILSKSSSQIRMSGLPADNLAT
Put plainly: cell-based or functional assay.

Test [2] concerns the target human CGRP receptor (human CRLR / human RAMP1 heterodimer) on SK-N-MC (HTB-10) cells (human, UniProt Q16602 23-461; O60894 27-148). Put plainly: cell-based or functional assay.
Test [3] has as its target T2, soluble CGRP receptor (ECDs of human CRLR and human RAMP1) (human, UniProt Q16602 23-133; O60894 26-117).
T2 construct: complex treated with thrombin before crystallization; also called soluble human CGRP receptor; CRLR ECD/RAMP1 ECD heterodimer
Put plainly: SPR (Biacore T200), antibody captured, soluble CGRP receptor as analyte. For orientation: In SPR one partner is held on a chip, and binding of the other changes the refractive index at the surface.

Test [4] deals with T3, soluble CGRP receptor (extracellular domains of human CRLR and human RAMP1) (human, UniProt Q16602 23-133; O60894 26-117).
T3 construct: the tag and the thrombin site are not described; also called soluble human CGRP receptor; CGRP receptor ECD
T3 sequence (Q16602 23-133, chain 1 of 2): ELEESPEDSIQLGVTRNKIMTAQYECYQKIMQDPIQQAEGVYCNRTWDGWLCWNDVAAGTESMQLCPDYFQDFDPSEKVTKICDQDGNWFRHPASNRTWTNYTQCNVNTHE
T3 sequence (O60894 26-117, chain 2 of 2): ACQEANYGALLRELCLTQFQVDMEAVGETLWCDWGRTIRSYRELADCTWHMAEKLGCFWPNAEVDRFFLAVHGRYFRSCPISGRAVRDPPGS
Put plainly: SPR (Biacore T200), antibody captured by goat anti-human Fc, soluble CGRP receptor as analyte.

T2 sequence (Q16602 23-133, chain 1 of 2): as the sequence (Q16602 23-133, chain 1 of 2) above
T2 sequence (O60894 26-117, chain 2 of 2): as the sequence (O60894 26-117, chain 2 of 2) above
Sequence of human CGRP receptor (human CRLR / human RAMP1 heterodimer) on SK-N-MC (HTB-10) cells (Q16602 23-461 limits assumed, chain 1 of 2): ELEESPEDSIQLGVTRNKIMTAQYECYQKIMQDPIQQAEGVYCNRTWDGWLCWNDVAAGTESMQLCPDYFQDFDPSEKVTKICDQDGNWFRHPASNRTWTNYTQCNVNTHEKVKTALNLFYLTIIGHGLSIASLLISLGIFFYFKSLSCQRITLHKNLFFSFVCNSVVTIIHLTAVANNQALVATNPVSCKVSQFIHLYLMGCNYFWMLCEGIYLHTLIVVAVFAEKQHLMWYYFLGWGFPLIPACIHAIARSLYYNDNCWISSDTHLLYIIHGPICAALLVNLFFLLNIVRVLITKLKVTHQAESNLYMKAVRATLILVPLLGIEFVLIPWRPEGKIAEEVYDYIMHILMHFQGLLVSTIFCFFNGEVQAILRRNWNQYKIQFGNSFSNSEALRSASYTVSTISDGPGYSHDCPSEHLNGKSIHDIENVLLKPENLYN
Sequence of human CGRP receptor (human CRLR / human RAMP1 heterodimer) on SK-N-MC (HTB-10) cells (O60894 27-148 limits assumed, chain 2 of 2): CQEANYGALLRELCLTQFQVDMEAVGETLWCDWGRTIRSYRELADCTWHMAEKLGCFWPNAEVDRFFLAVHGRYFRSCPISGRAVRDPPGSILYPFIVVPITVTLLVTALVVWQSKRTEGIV

B1: iPS:571824 (5609) anti-CGRP receptor/anti-PAC1 receptor bispecific hetero-immunoglobulin (bispecific antibody, human IgG1, kappa, lambda, N297G)
light 1: QSVLTQPPSVSAAPGQKVTISCSGSYSNIGRYSVSWYQQLPGTAPKLLIYDNNKRPSGIPDRFSGSKSGTSATLGITGLQTGDEADYYCGTWDSRLSAVVFGGGTKLTVLGQPKAAPSVTLFPPSSEELQANKATLVCLISDFYPGAVTVAWKADSSPVKAGVETTTPSKQSNNKYAAKSYLSLTPEQWKSHRSYSCQVTHEGSTVEKTVAPTECS
heavy 1: QVQLVESGGGVVQPGRSLRLSCAASGFTFSSFGMHWVRQAPGKGLEWVAVISFDGSIKYSVDSVKGRFTISRDNSKNTLFLQMNSLRAEDTAVYYCARDRLNYYESSGYYHYKYYGMAVWGQGTTVTVSSASTKGPSVFPLAPSSKSTSGGTAALGCLVKDYFPEPVTVSWNSGALTSGVHTFPAVLQSSGLYSLESVVTVPSSSLGTQTYICNVNHKPSNTKVDKKVEPKSCDKTHTCPPCPAPELLGGPSVFLFPPKPKDTLYITREPEVTCVVVDVSHEDPEVKFNWYVDGVEVHNAKTKPCEEQYGSTYRCVSVLTVLHQDWLNGKEYKCKVSNKALPAPIEKTISKAKGQPREPQVYTLPPSREKMTKNQVSLTCLVKGFYPSDIAVEWESNGQPENNYKTTPPVLKSDGSFFLYSKLTVDKSRWQQGNVFSCSVMHEALHNHYTQKSLSLSPGK
light 2: EIVLTQSPATLSLSPGERATLSCRASKSVGRSLHWYQQKPGQAPRLLIKYASQSLSGIPARFSGSGSGTDFTLTISSLEPEDFAVYYCHQSSRLPFTFGPGTKVDIKRTVAAPSVFIFPPSDEQLKSGTASVVCLLNNFYPREAKVQWKVDNALQSGNSQESVTEQDSKDSTYSLESTLTLSKADYEKHKVYACEVTHQGLSSPVTKSFNRGEC
heavy 2: not shown
With B1, in test [1], the “Fold-improvement over 29G4v22 Ab (human PAC1 receptor IC50)” value was found to be 6.6 fold and the “Human PAC1 Receptor IC50 (nM), cell-based cAMP assay” value came to 0.62 nM. Further, in test [2], the “Fold-improvement over 4E4 Ab (human CGRP receptor IC50)” value is 1.5 fold and the “Human CGRP Receptor IC50 (nM), cell-based cAMP assay” value was found to be 0.38 nM.

B2: 4E4 single-point alanine variant antibody H_D54A (antibody, V domains shown)
VH: QVQLVESGGGVVQPGRSLRLSCAASGFTFSSFGMHWVRQAPGKGLEWVAVISFAGSIKYSVDSVKGRFTISRDNSKNTLFLQMNSLRAEDTAVYYCARDRLNYYDSSGYYHYKYYGMAVWGQGTTVTVSS
VL: QSVLTQPPSVSAAPGQKVTISCSGSSSNIGNNYVSWYQQLPGTAPKLLIYDNNKRPSGIPDRFSGSKSGTSTTLGITGLQTGDEADYYCGTWDSRLSAVVFGGGTKLTVLG
notes: Recombinantly expressed as monoclonal antibody; also called CDRH2 D54A antibody variant
For the molecule B2, the “fold faster dissociation rate against wild-type 4E4” value in test [3] was approximately 5 fold.

B3: 4E4 single-point alanine variant antibody H_Y109A (antibody, V domains shown)
VH: B2 VH with A54D, Y109A
VL: B2 VL
notes: Recombinantly expressed as monoclonal antibody
Consider B3, for which the binding result in test [3] is on record as “no binding (tested: 1000 nM (highest analyte concentration))”.

B4: 4E4 heavy chain Y103A single-point alanine variant antibody (antibody, V domains shown)
VH: B2 VH with A54D, Y103A
VL: B2 VL
notes: Recombinantly expressed as a monoclonal antibody
In the case of B4, the binding result in test [4] is listed as “no binding (tested: soluble CGRP receptor up to 1000 nM)”.

B5: 4E4 single-point alanine variant antibody H_Y104A (antibody, V domains shown)
VH: B2 VH with A54D, Y104A
VL: B2 VL
notes: as for B3
Turning to B5, the binding result in test [3] is recorded as “no binding (tested: 1000 nM (highest analyte concentration))”.

B6: 4E4 single-point alanine variant antibody H_Y103A (antibody, V domains shown)
VH: B2 VH with A54D, Y103A
VL: B2 VL
notes: as for B3
For the molecule B6, the binding result in test [3] is recorded as “no binding (tested: 1000 nM (highest analyte concentration))”.

B7: 4E4 heavy chain Y110A single-point alanine variant antibody (antibody, V domains shown)
VH: B2 VH with A54D, Y110A
VL: B2 VL
notes: as for B4
With B7, the binding result in test [4] is recorded as “no binding (tested: soluble CGRP receptor up to 1000 nM)”.

B8: 4E4 heavy chain Y109A single-point alanine variant antibody (antibody, V domains shown)
VH: B2 VH with A54D, Y109A
VL: B2 VL
notes: as for B4
With B8, the binding result in test [4] is reported as “no binding (tested: soluble CGRP receptor up to 1000 nM)”.

B9: 4E4 single-point alanine variant antibody H_Y110A (antibody, V domains shown)
VH: B2 VH with A54D, Y110A
VL: B2 VL
notes: as for B3
B9: in test [3], the binding result is listed as “no binding (tested: 1000 nM (highest analyte concentration))”.

B10: 4E4 heavy chain Y104A single-point alanine variant antibody (antibody, V domains shown)
VH: B2 VH with A54D, Y104A
VL: B2 VL
notes: as for B4
With B10, the binding result in test [4] is “no binding (tested: soluble CGRP receptor up to 1000 nM)”.
